From PMC7474645

Legend:
Assay in all cases: FRET or BRET
[1] = molecular target: Smoothened fused to Rluc8 (Smo-Rluc8) (UniProt Q99835)
[2] = molecular target: endothelin A receptor fused to Rluc8 (ETA-Rluc8) (UniProt P25101)
[3] = molecular target: formyl peptide 1 receptor fused to Rluc8 (FPR1) (UniProt P21462)
[4] = molecular target: thromboxane A2 receptor fused to Rluc8 (TP-Rluc8) (UniProt P21731)
[5] = molecular target: formyl peptide 2 receptor fused to Rluc8 (FPR2-Rluc8) (UniProt P25090)
Chain of UniProt P25090 (P25090 whole entry, the tested form may be a part): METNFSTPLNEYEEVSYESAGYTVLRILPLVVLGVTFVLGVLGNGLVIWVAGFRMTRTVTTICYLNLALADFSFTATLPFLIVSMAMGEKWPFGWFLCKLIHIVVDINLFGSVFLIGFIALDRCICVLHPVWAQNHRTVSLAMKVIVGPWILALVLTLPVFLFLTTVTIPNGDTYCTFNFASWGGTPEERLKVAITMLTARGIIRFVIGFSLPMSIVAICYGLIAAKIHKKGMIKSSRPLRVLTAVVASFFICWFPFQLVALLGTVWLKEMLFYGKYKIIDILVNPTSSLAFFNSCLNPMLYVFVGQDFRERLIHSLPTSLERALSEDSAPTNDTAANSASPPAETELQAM

Chain of UniProt P25101 (P25101 21-427): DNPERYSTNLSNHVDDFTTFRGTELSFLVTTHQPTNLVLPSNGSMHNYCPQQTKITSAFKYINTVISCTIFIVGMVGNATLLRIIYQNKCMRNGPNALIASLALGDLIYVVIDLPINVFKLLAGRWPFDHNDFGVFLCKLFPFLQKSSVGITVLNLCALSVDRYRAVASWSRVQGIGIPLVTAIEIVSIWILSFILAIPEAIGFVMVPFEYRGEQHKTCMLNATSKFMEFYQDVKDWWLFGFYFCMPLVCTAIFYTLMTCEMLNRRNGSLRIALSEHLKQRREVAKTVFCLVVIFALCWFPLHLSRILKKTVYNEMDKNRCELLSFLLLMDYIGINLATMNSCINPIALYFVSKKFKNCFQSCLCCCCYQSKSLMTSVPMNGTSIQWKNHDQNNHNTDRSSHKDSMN
Chain of UniProt P21731 (P21731 whole entry, the tested form may be a part): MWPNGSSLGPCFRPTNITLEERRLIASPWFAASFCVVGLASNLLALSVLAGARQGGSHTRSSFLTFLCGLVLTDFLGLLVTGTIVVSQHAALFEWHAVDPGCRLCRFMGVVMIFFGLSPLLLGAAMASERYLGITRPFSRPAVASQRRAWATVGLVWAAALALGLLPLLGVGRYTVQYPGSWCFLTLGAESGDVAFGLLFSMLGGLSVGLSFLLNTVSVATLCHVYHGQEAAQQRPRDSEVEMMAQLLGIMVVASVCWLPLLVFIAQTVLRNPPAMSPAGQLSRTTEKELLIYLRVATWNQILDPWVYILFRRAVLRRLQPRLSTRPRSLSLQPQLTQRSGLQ
Chain of UniProt Q99835 (Q99835 28-787): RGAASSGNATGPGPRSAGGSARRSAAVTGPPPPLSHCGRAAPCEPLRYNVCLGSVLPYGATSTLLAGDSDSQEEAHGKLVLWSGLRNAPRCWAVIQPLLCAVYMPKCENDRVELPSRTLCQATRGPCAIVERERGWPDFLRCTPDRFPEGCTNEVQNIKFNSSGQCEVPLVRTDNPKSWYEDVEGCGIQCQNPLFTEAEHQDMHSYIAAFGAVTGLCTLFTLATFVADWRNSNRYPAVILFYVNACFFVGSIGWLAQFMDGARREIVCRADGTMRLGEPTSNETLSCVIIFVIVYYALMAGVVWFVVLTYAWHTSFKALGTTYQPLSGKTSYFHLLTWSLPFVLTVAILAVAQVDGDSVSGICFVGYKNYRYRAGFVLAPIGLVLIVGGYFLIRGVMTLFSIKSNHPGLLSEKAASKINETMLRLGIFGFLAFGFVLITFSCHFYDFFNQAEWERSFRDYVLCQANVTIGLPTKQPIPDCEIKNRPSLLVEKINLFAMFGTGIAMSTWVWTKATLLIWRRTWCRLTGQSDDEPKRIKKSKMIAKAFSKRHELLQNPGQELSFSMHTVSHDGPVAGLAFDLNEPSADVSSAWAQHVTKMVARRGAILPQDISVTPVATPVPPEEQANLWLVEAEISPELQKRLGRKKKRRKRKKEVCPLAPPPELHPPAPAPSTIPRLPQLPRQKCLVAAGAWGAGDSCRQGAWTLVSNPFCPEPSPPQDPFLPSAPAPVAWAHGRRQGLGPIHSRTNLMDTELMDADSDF
Chain of UniProt P21462 (P21462 whole entry, the tested form may be a part): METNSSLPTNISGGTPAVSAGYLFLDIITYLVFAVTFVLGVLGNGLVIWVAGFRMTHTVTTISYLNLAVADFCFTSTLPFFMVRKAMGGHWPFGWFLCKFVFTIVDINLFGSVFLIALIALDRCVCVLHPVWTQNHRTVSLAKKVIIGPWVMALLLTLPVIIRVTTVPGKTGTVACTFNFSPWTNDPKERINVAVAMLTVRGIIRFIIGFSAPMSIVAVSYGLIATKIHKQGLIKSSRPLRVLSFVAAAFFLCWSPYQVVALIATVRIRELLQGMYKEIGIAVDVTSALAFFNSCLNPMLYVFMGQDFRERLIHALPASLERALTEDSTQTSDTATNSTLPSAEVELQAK

Substance	RGDP (GDP-resistance ratio) [1]	RGDP (GDP-resistance ratio) [2]	RGDP (GDP-resistance ratio) [3]	RGDP (GDP-resistance ratio) [4]	RGDP (GDP-resistance ratio) [5]
G12 heterotrimer, Gα12β1γ2-Venus (from UniProt Q03113;P62873;P59768) (complex)	1.01	0.66	0.96	0.55	
G12 heterotrimer, Gα12β1γ2-Venus (from UniProt Q03113;P62873;P59768) (complex; other documents disagree on this pair)					0.92
G13 heterotrimer, Gα13β1γ2-Venus (from UniProt Q14344;P62873;P59768) (complex)		0.21		0.18	
Gq heterotrimer, Gαqβ1γ2-Venus (from UniProt P50148;P62873;P59768) (complex)		0.29			
